Paper PMC7217052, “Rapid Biophysical Characterization and NMR Spectroscopy Structural Analysis of Small Proteins from Bacteria and Archaea” (Chembiochem, 2020)

Molecular target: the molecule itself
Test: solution-state NMR structure; 5 mM protein, 50 mM sodium phosphate buffer pH 7.5, 100 mM NaCl, 298 K; best 20 structures shown as a symmetrical dimer

B1: SP-22 small protein from Haloferax volcanii (natural protein)
chain: MNKAHFEVFVDAADKYRWRLVHDNGNILADSGEGYASKQKAKQGIESVKRNAPDADVIEA
notes: source: heterologously expressed in E. coli, purified (purity above 95 %)
In the case of B1, the “stoichiometry N” value is reported as 2.
